Assay results: paper PMC2818519 (Journal of structural biology, 2009)
Blank lines part the entries; values can stand above or below the molecule they belong to.

Columns and labels:
[1] = target: SUR2A nucleotide binding domain 2 (NBD2, G1301-K1546) (murine); assay: SAXS
SAXS = target: the molecule itself; assay: SAXS

stoichiometry N [1]: 8
Molecule: SUR2A nucleotide binding domain 2 (NBD2, G1301-K1546) (domain or fragment)

B1: SUR2A nucleotide binding domain 1 (NBD1, D666-890) (domain or fragment, murine, UniProt P70170-1 666-890, looked up)
chain: DIAIKVTNGYFSWGSGLATLSNIDIRIPTGQLTMIVGQVGCGKSSLLLAILGEMQTLEGKVYWNNVNESEPSFEATRSRSRYSVAYAAQKPWLLNATVEENITFGSPFNRQRYKAVTDACSLQPDIDLLPFGDQTEIGERGINLSGGQRQRICVARALYQNTNIVFLDDPFSALDIHLSDHLMQEGILKFLQDDKRTVVLVTHKLQYLTHADWIIAMKDGSVLRE
stoichiometry N (SAXS): 8
